B1: ADI-41266 (antibody, V domains shown)
VH: QVQLQQSGPGLVKPSQTLSLTCAISGDSVSSNSAAWNWIRQSPSRGLEWLGRTYYRSKWYNDYAVSVKSRITINPDTSKNQFSLQLNSVTPEDTAVYYCARDLPQVDYFDGASFYFFDFWGQGTLVTVSS
VL: QPVLTQPPSVSVAPGQTASITCGGNIIGNKGVHWYQQKPGRAPVLVVYDDSDRPSGIPERFSGSNSGNTATLTISRVEAADEADYYCQVWDTGSHPVVFGGGTKVTVL
B2: ADI-41349 (antibody, V domains shown)
VH: EVQLLESGGGLVQPGRSLRLSCTGSGFTFGDYAMNWVRQAPGKGLEWVGLIRSKDYGGTTEFAASLKGRLTISRDDSKSIAYLQMHSLKTEDSAVYYCTRAHLTDYTDINGYQYYFDYWGQGSPVTVSS
VL: DIQMTQSPSSLSASVGDRVTITCQASQDISNFLNWYQQRPGKAPKLLIHDASNLETGVPSRFSGSGSRTEFTFTISSLQPEDIGTYYCQHYDNFPYTFGQGTKVEIK
B3: ADI-41254 (antibody, V domains shown)
VH: EVQLVESGGGLVQSGGSLRLSCAASGFTFSSYEMNWVRQAPGKGLEWVSYTTNNGRTIYYADSVKGRFTISRDNAKNSLFLQMNGLRAEDTAVYYCARGIQFSRVDYAMDVWGQGTTVTVSS
VL: SYELTQPPSVSGTPGQRITISCSGSSSNIASNTVNWYQHLPGTAPKLLIYSDNQRPSGVPDRFSGSKSGTSASLAISGLQSEDEADYYCAIWDDSLNASYVFGTGTKLTVL
B4: ADI-41340 (antibody, V domains shown)
VH: QVQLVQSGAEVKTPGSSVKVSCKASGGTFRSYPITWVRQAPGQGLEWMGTVIPVFDTVNYAPKFQGRVSITADESTNTAYMELSSLRSDDSAVYYCARDLGWLRPMTTVTSPHFDYWGQGTLVTVSS
VL: QSVLTQPASVSGSPGQSITISCTGTSSDVGGYDFVSWYQQHPGKAPKLMISEVTDRPSGVSNRFSGSKSGNTASLTISGLQAEDEADYYCTSYTSSRTYVFGTGTKLTVL
B5: ADI-41296 (antibody, V domains shown)
VH: EVQLVESGVEVKKPGESLKISCRGSGYTFYNYWIAWVRQKPGKGLEYMGTIYLDDSETIYSPSFQGEVTISADKSINTAYLQWNSLKASDTANYYCARQMDFYFDVWGRGTLVTVSS
VL: SYELMQPPSVSVSPGQTARITCSGDPLPRESAYWYQQKPGQAPVVIIFNDIERPLGIPERFSGSRSGTTVTLTISGAQAEDEADYYCQSADSRKTFVFGTGTKLTVL
B6: ADI-41310 (antibody, V domains shown)
VH: QVQLVQSGVEVKKPGESLKISCRGSGYSFYNYWIAWVRQKPGKGLEYMGTIYLDDSDTIYSPSFQGEVTISADKSINTAYLQWNSLKASDTANYYCARQMDFYFDVWGRGTLVTVSS
VL: SYELTQPPSVSVSPGQTARITCSGDPLPRESAYWYQQKPGQAPVVVIFNDIERPLGIPGRFSGSRSGATATLTINGAQAEDEADYYCQSADSRKTFVFGAGTKLTVL
B7: ADI-41320 (antibody, V domains shown)
VH: QVQLVQSGVEVKKPGESLKISCRGFGYSAYNYWIAWVRQKPGKGLEYMGTIYLDDSDTIYSPSFQGEVTISADRSINTAYLQWNSLKASDTANYYCARQMDFYFDVWGRGTLVTVSS
VL: QSVLTQPPSVSVSPGQTARITCSGDPLPRESAYWYQQKPGQAPVVVIFNDIERPLGIPARFSGSRSGTTVTLTISGAQAEDEADYYCQSADSRKTFVFGPGTKLTVL
B8: ADI-41294 (antibody, V domains shown)
VH: EVQLLESGGGLVQPGGSLRLSCAASGFTFSAYEMNWVRQAPGKGLEWVSYISSSGSNKHYADSVKGRFTISRDNAKNSLHLHMNSLRAEDTALYYCTRPHQEEWELLPNDAFDLWGQGTMVTVSS
VL: QSALTQPPSASGSPGQSVTISCTGTSTDVGAYTYVSWYQQHPGKAPKLIIYEVYKRPSGVPNRFFGSKSGNTASLTVSGLQAEDEADYYCSSYGGSNNFGLFGGGTKLIVL
B9: ADI-41246 (antibody, V domains shown)
VH: EVQLLESGPGLVKPSETLSLTCIVSGGSISSYNWNWIRQPPGKGLEWIGYIYNSGSTNYNPSLKSRVTISVDTSKNQFSLKLSSVTAADTAVYYCARYFDYGSGGFDYWGQGTLVTVSS
VL: ETTLTQSPGTLSLSPGERATLSCRASQSVTSTYLAWYQQKPGQAPRLLIYGASSRATGIPDRFSGSGSGTDFTLTISRLEPEDFAVYYCQQFDSSLTFGGGTKVEIK
B10: ADI-41257 (antibody, V domains shown)
VH: QVQLVESGAEVKKPGSSVKVSCKASEGTFSSYGISWVRQAPGQGPEWMGEINPMFGTAKYAQKFQGRVTITVDESTSTADMELSSLTSEDTAVYYCAREFLGQCSETNCPTPSRHLDYWGQGTLVTVSS
VL: EIVMTQSPSSLSASVGDRVTITCRASRTISSYLNWYQQKPGKAPKLLIYATSNLQSGVPSRFSGSGSGADFTLTISSLQPEDFATYYCQQTYSTPGFGPGTKVDIK
B11: ADI-41258 (antibody, V domains shown)
VH: QVQLVQSGGGLVQRGGSLRLSCAASGFSFRSYAMSWVRQAPGKGLEWVSSISDSGDNTFYADSVKGRFSISRDNSRDTLYLQMNSLRAEDTAVYYCARGGYCSGGNCFPFDYWGQGTLVTVSS
VL: SYELMQLPSVSVSPGQTARITCSGDALPKQYGYWYQQKPGQAPVLVIYKDSERPSGIPERFSGSSSGTTVTLTISGVQAEDEADYYCQSADSGGTYVMFGGGTKLTVL
B12: ADI-41268 (antibody, V domains shown)
VH: EVQLVESGGGLVKPGGSLRLSCVASGFGFTSYSMNWVRQAPGKGLEWVSSISASSTYIHYADSVKGRFTISRDNARNSLYLQMISLRADDTAVYYCSRDGPTYGSGVHVWGQGTMVTVSS
VL: QSALIQPVSVSGSPGQSITISCTGTRSDVGGYNYVSWYQQHPGKAPKLMIYEVRNRPSGVSDRFSGSKSGNTASLTISGLQAEDEGDYYCSSYTSSDTLFYVFGSGTKLTVL
B13: ADI-41238 (antibody, V domains shown)
VH: EVQLLESGGGLVKPGGSLRLSCAASGFTFRDYYMSWIRQAPGKGLEWVSYISSSSSYTEYADSVKGRFTISRDNAKKSLYLQMNSLRTEDTAVYYCARVITQAGTGTTYYMDVWGKGTTVTVSS
VL: QSVLTQPPSVSGAPGQRVTISCTGSSSNIGTGYDVHWYQQLPGTAPKLLIYANNNRPSGVPDRFSGSKSGTSASLAITGLQAEDEADYYCQSYDSSLSLVFGGGTKLTVL
B14: ADI-41237 (antibody, V domains shown)
VH: EVQLVESGGGLVKPGGSLRLSCAASGFTFSDYYMNWIRQAPGKGLEWVSDISPSSSYTNYADSVKGRFTISRDNAKNSLYLQMNSLRAEDTAMYYCARRGSCTGGVCSFDYWGQGTLVTVSS
VL: QPGLTQPPSVSGAPGQRVTISCTGSSSNIGAGYDVNWYQQLPGTAPKLLIYDNSNRPSGVPDRFSGSKSGTSASLAITGLQAEDEADFYCQSYDSSLSGFVFGTGTKVTVL
B15: ADI-41343 (antibody, V domains shown)
VH: EVQLVESGGGLVKPGGSLRLSCAASGFTFSSYYMNWVRQAPGKGLEWVSSISGGSSYISYADSVKGRFTISRDNAKNSLYLQMNSLRAEDTAVYYCARVDTPMVRGYYFDYWGQGTLVTVSS
VL: QSVLTQPPSVSGAPGRRVTISCTGSSSNIGAGYDVHWYQQLPGTAPKLLIFANSNRPSGVPDRFSGSKSGTSASLAITGLQAEDEADYYCQSYDSSLSGSVFGGGTKVTVL
B16: ADI-41245 (antibody, V domains shown)
VH: QVQLVESGGGLVKPGGSLRLSCAASGFSFSAYYMSWIRQAPGKGLEWISNISGGSSYANYADSVEGRFTISRDNAKNSLYLQMNSLRAEDTAVYYCAREFQTYYYMDVWGKGTTVTVSS
VL: QPVLTQPPSVSGAPGQRVTISCTGSSSNIGAGYEVHWYQQLPGTAPKLLIYGNNNRPSGVPDRFSGSKSGTSASLAITGLQAEDEADYYCQSYDSSLSGSVFGGGTKLTVL
B17: ADI-41251 (antibody, V domains shown)
VH: EVQLVESGGGLVKPGGSLRLSCAASGFTFSDYYMTWIRQAPGKGLEWVSNISGGSSYTNYADSVKGRFTISRDNAKNSVYLQMNSLRAEDTAVYYCARVGCSGGVCNFFLDYWGQGTLVTVSS
VL: QSVLTQPPSVSGAPGQRVTISCTGSSSNIGAGYDVHWYQQLPGTAPKLLIYDNTNRPSGVPDRFSGSKSGTSASLAITGLQAEDEADYYCQSYDSSLSGYVFGTGTKVTVL
B18: ADI-41288 (antibody, V domains shown)
VH: EVQLVESGGGLVQPGGSLRLSCAASGFTFSSYAMSWVRQAAGKGLEWVSAISGSGDDTFYADSVKDRFIISRDSSKRKVYLQMNSLRVEDTAVYYCAKTDIMVTFGGVVVDAYYFDHWGQGTLVTVSS
VL: ETTLTQSPGTLSLSPGERATLSCRASQFVFRSYLAWYQQRPGQPPRLLIYGASSRATGIPDRFSGRGSGTEFTLTISRLEPEDFAMYYCQHYDSSPPGTFGGGTKVEIK
B19: ADI-41253 (antibody, V domains shown)
VH: EVQLVQSGPGLVKPSETLSLTCTVSGDSISSSDYSYYWGWIRQPPGKGLEWIASLSYSGKTYSQSSLKSRVIISVDTSKKQFSLKLSSVTAADTAVYYCAVTRCYVCTSEGDSFDMWGQGTMVTVSS
VL: DIVLTQTPGTLSLSPGERATLSCRASQSISGNYLAWYQHKPGQAPRLLIYGASTRATGIPDRFSGSGSGTDFPLTISRLEPEDFAVYYCQQYATSPYTFGQGTKVDIK
B20: ADI-41322 (antibody, V domains shown)
VH: QVQLVQSGAEVKKPGSSVRVSCKASGGSFSSYATSWVRQAPGQGLEWMGGIIPMYDAVNYAQKFQGRVTITADESTTTAYMELSSLRSEDTAVYYCARSSGYTGTNFFDYWGQGTLVTVSS
VL: DIQMTQSPSSVSASVGDRVTITCRASQDISSWLAWYQQKPGKAPKLLIYTASSLQSGVPSRFSGSGSGTDFTLTISRLQPEDFATYYCQQANSFPRVTFGGGTKVEIK
B21: ADI-41317 (antibody, V domains shown)
VH: EVQLVESGGGLVQPGGSLRLSCEASRFKFSTFWMAWVRQAPGKGLEWVANIKQDGSETYYLDSVKGRFTISRDNAKNSLFLQMKSLRAEDTAVYYCAGLWWGDLENWFDPWGQGTLVTVSS
VL: QSVLTQPPSVSGAPGQRVTISCTGSSSNLGTGFDVHWYRQLPGTAPQLLIYGSTNRPSGVPDRFSGSKYGTSASLAITGLQAEDEADYYCQSYDSNLRAYVFGTVTKVTVL

The binders below were run against RSV prefusion F (preF, DS-Cav1) (Respiratory syncytial virus) (assay: BLI, IgG on sensor, 100 nM antigen).
B1 showed a Kd of 4.06 nM.
In the case of B2, the Kd is reported as 6.25 nM.
In the case of B3, the Kd is reported as 0.776 nM.
Binder B4 has a Kd of 3.51 nM.
Work on B5 yielded a Kd of 3.35 nM.
B6 gave a Kd of 3.32 nM.
Binder B7 has a Kd of 3.2 nM.
Work on B8 yielded a Kd of 0.512 nM.
B9 gave a Kd of 3.08 nM.
B10 showed a Kd of 3.81 nM.
Work on B11 yielded a Kd of 0.968 nM.
With B12 the Kd was 0.581 nM.
B13 showed a Kd of 1.03 nM.
Binder B14 has a Kd of 0.794 nM.
B15 showed a Kd of 0.721 nM.
B16 gave a Kd of 0.775 nM.
For B17, the Kd was 0.593 nM.
B18 showed a Kd of 8.99 nM.
Binder B19 has a Kd of 1.11 nM.
For B20, the Kd was 2.98 nM.
Work on B21 yielded a Kd of 48.2 nM.
